# In patent US8309523 (VIB VZW, dated 2012):
# T1: MALT1 (wild type, Flag- and Avi-tagged bio-construct) (human, UniProt Q9UDY8 1-824, Avi-tag biotinylated in vivo by co-expressed BirA)
# T1 construct: also called paracaspase; bio-IP purified MALT1
# T1 sequence (looked up): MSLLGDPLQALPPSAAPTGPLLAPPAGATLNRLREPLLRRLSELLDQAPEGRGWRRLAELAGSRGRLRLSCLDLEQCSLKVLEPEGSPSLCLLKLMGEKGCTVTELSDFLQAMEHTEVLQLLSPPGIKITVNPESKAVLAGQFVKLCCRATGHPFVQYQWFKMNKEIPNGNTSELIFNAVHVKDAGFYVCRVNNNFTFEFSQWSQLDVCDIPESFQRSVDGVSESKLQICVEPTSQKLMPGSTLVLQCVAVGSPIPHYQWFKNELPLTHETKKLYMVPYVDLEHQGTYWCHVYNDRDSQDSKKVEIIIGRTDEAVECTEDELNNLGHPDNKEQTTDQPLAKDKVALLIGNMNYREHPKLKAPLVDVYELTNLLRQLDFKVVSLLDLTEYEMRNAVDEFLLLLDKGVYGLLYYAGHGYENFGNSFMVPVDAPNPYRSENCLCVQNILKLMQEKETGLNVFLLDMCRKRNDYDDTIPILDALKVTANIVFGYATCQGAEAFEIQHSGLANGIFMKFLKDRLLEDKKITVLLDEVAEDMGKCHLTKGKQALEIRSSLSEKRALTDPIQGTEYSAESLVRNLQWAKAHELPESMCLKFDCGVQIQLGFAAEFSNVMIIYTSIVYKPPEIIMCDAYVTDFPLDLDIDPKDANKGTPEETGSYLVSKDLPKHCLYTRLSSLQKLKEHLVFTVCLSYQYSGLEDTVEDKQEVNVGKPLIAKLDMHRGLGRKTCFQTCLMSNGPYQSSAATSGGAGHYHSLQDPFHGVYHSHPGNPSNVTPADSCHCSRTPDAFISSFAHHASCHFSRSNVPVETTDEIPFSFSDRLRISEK
# T2: p76 fragment of MALT1 (Avi-tagged expression construct) (human, UniProt Q9UDY8 150-824, Avi-tag biotinylated in vivo by co-expressed BirA)
# T2 construct: domain: p76 cleavage fragment; Lacks the N-terminal death domain; also called MALT1 p76; 76 kDa C-terminal fragment
# T2 sequence (looked up): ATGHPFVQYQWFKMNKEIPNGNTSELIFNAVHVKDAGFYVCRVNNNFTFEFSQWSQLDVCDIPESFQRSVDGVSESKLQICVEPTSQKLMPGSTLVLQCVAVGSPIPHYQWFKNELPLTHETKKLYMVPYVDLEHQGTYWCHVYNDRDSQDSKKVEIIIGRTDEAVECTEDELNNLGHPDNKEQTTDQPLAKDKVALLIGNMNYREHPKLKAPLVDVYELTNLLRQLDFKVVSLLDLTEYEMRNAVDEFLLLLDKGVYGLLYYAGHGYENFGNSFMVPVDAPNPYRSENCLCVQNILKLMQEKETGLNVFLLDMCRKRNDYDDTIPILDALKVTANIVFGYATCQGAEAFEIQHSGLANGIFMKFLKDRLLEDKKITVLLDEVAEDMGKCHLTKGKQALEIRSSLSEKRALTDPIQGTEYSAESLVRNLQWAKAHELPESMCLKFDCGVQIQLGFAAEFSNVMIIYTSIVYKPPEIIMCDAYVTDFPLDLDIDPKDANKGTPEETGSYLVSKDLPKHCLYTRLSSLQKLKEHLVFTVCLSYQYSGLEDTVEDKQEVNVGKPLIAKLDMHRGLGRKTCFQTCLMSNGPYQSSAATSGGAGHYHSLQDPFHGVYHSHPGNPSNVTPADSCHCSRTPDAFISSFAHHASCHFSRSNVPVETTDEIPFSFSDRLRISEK
# B1: TRAF6 (other, UniProt Q9Y4K3 1-522, looked up)
# chain: MSLLNCENSCGSSQSESDCCVAMASSCSAVTKDDSVGGTASTGNLSSSFMEEIQGYDVEFDPPLESKYECPICLMALREAVQTPCGHRFCKACIIKSIRDAGHKCPVDNEILLENQLFPDNFAKREILSLMVKCPNEGCLHKMELRHLEDHQAHCEFALMDCPQCQRPFQKFHINIHILKDCPRRQVSCDNCAASMAFEDKEIHDQNCPLANVICEYCNTILIREQMPNHYDLDCPTAPIPCTFSTFGCHEKMQRNHLARHLQENTQSHMRMLAQAVHSLSVIPDSGYISEVRNFQETIHQLEGRLVRQDHQIRELTAKMETQSMYVSELKRTIRTLEDKVAEIEAQQCNGIYIWKIGNFGMHLKCQEEEKPVVIHSPGFYTGKPGYKLCMRLHLQLPTAQRCANYISLFVHTMQGEYDSHLPWPFQGTIRLTILDQSEAPVRQNHEEIMDAKPELLAFQRPTIPRNPKGFGYVTFMHLEALRQRTFIKDDTLLVRCEVSTRFDMGSLRREGFQPRSTDAGV
# notes: Co-precipitated from lysates of human cell lines
# Key:
# [1] = molecular target: T1, MALT1 (wild type, Flag- and Avi-tagged …); experiment: bio-IP from HEK293T cells, anti-TRAF6 immunoblot
# Source text: (§1) FIG. 5: p76 activates NFκB via TRAF6. […] Panel B) TRAF6 mediates NFκB signaling by p76. Top: NFκB-reporter assays of HEK293T cells transiently expressing MALT1, p76 and mutants or MALT1-C. Bottom: MALT1, p76 or MALT1-C, transiently expressed in HEK293T cells, were purified via bio-IPs and immunoblotted with anti-MALT1 (to show equal expression), anti-TRAF6 and anti-BCL10. Panel C) p76 induces polyubiquitination of IKKγ. Immunoblot analysis of bio-IP and IKKγ-IP of 293T cells transfected with pcD-F-IKKγ and pcd-HA-Ub in combination with indicated Avi-tagged MALT1 constructs. Panel D) BCL10 is not involved in NFκB signaling by p76. NFκB reporter assays of HEK-293T cells transfected with siRNA duplexes against MALT1, BCL10 or GFP (as control) followed by transient transfection with p76. The expression levels were determined by immunoblot with anti-MALT1 and anti-BCL10. NFκB-dependent luciferase activity […] is shown as fold induction of vector-transfected cells and represents the mean+/−S.D. of three independent experiments.
# (§2) NFκB activation by MALT1 requires TRAF6 binding via two distinct sites (19), which are both present in the p76 cleavage fragment. Mutation of one TRAF6 binding site, either E313A/E316A (T6Ig-m) or E806A (T6C-m), abolished the potential of p76 to activate NFκB signaling in 293T cells (FIG. 5, Panel B). […] Furthermore, NFκB activation by p76 in 293T cells was associated with increased polyubiquitination of IKKγ (FIG. 5, Panel C).
# [2] = molecular target: T2, p76 fragment of MALT1 (Avi-tagged …); experiment: bio-IP from HEK293T cells, anti-TRAF6 immunoblot
# Source text: as §1, §2
binder,measurement,setting,value
B1,binding result,[1],binds
same,binding result,[2],binds
